Assay in all cases: cell-based or functional assay
Experiment [1] has as its target rhodopsin in urea treated rod outer segments (bovine) (UniProt P02699).
Experiment [2] addresses G protein-coupled receptor kinase GRK6 (human) (human) (UniProt P43250).
Experiment [3] concerns the target G protein-coupled receptor kinase GRK5 (human) (human) (UniProt P34947).

The record followed here is patent publication US20020034767A1, “Compositions and methods for modulating the activity of G protein-coupled receptor kinases GRK5 and GRK6” (priority 1993, published 2002).

Sequence of rhodopsin in urea treated rod outer segments (bovine) (P02699 whole entry): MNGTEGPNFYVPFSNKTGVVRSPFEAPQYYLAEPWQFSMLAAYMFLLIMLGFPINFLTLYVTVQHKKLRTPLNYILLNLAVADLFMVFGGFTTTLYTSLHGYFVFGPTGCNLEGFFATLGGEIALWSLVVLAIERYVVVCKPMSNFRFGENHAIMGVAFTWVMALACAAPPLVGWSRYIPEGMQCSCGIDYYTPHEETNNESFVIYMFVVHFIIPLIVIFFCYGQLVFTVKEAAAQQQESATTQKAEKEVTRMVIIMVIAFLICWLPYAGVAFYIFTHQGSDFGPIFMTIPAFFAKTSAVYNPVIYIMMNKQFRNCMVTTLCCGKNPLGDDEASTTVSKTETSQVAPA
Sequence of G protein-coupled receptor kinase GRK6 (human) (human) (P43250 other isoform, or with tags, fused parts or gaps limits assumed): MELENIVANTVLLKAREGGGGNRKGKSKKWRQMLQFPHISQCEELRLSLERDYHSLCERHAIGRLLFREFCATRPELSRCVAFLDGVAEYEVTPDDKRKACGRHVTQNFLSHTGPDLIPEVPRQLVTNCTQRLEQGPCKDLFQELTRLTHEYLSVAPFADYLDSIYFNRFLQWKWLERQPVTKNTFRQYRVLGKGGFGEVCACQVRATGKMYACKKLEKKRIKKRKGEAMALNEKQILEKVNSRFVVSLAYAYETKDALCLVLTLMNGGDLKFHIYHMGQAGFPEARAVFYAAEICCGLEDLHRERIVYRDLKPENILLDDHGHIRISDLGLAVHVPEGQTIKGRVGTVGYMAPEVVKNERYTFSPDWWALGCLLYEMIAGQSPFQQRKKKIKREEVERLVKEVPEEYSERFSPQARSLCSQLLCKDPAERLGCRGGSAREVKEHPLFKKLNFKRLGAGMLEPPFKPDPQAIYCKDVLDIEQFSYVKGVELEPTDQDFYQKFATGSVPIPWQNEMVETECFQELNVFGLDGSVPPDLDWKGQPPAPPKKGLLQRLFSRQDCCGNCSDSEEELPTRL
Sequence of G protein-coupled receptor kinase GRK5 (human) (human) (P34947 whole entry E78G): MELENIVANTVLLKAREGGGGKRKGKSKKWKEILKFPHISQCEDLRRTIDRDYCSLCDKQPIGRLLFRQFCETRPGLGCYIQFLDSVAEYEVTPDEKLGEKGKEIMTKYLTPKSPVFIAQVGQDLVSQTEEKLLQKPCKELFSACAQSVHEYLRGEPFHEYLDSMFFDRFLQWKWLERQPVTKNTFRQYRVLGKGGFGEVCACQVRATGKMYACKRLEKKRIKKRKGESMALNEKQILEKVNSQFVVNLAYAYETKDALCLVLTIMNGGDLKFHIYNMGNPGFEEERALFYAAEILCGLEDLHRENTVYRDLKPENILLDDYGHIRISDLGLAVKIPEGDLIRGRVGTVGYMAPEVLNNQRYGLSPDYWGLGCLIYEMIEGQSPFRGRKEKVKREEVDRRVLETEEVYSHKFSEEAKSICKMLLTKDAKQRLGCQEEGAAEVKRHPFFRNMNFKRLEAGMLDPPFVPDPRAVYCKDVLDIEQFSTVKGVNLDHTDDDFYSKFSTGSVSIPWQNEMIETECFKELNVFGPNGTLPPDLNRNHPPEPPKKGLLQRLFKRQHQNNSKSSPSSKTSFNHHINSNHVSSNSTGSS

As for “G protein-coupled receptor kinase GRK5 (human) (from UniProt P34947 1-590) (enzyme)”, the light-dependent rhodopsin phosphorylation by Sf9 cell supernatant in experiment [1] was 1120 pmol/min/mg.
“G protein-coupled receptor kinase GRK6 (human) (from UniProt P43250 1-576) (enzyme)” returned a specific activity of phosphorylation of bleached rhodopsin by Sf9 cell supernatant (pmol/min/mg protein) in experiment [1] of 81.
In experiment [2], polyaspartic acid (peptide) had an IC50 of inhibition of kinase activity of 487 nM and a fold less effective as inhibitor compared to GRK5 of 6 fold.
The like results for polyglutamic acid (peptide) were, in that order, 400 nM and 16 fold.
In experiment [3], polylysine, a 14-16 amino acid peptide gave a fold activation of kinase activity of 2.6 fold.
In experiment [1], β-adrenergic receptor kinase (enzyme) had a light-dependent rhodopsin phosphorylation by Sf9 cell supernatant of 2470 pmol/min/mg.
